The record followed here is patent US20180169189A1 (AUTOLUS, published 2018).

The target of experiment [1] is T1, amino-terminal (endodomain) truncate of CD20 (human, UniProt P11836 42-297).
T1 construct: Expressed on transfected 293T cells, fused or co-expressed with eGFP (the text and the legend differ); As expressed in dCD20-FAS, the construct carries an extra N-terminal MG; also called dCD20
T1 sequence: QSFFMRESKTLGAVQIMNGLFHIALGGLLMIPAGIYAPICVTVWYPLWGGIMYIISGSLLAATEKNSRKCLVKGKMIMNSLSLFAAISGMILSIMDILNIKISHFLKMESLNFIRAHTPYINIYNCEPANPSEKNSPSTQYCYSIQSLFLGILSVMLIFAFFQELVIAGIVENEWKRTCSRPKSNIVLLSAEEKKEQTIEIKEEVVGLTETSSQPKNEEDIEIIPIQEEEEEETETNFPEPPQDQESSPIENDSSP
Briefly: flow cytometry, transfected 293T cells. The source says: (§1) To this end: full-length CD20; an amino-terminal (endodomain) truncate of CD20; and a carboxy-terminal (endodomain) truncate of CD20 were each fused with eGFP.
In general terms: A flow cytometer gives signals particle by particle.

The target of experiment [2] is T2, carboxy-terminal (endodomain) truncate of CD20 (human, UniProt P11836 2-236).
T2 construct: Expressed on transfected 293T cells, fused or co-expressed with eGFP (the text and the legend differ); also called CD20d
T2 sequence: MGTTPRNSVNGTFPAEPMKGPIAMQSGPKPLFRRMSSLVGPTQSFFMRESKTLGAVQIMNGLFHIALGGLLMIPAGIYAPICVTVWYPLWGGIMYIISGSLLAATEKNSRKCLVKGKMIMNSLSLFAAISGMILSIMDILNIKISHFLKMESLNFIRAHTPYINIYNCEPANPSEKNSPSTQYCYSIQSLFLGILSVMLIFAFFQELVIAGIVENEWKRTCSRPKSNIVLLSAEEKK
The experiment in a line: flow cytometry, transfected 293T cells.
Source text: as §1

The next experiment deals with T3, CD20-P172W (human, UniProt P11836 1-297).
T3 construct: also called P172W mutated CD20
T3 sequence: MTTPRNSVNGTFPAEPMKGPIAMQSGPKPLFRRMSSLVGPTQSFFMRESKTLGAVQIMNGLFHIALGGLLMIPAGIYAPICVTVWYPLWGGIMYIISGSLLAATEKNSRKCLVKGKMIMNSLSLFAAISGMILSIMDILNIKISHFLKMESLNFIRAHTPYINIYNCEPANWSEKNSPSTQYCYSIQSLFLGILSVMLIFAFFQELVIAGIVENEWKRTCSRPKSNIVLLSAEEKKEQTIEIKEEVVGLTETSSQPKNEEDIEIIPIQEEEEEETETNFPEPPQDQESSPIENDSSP
The experiment in a line: flow cytometry staining of transfected 293T cells.

B1: Rituximab (antibody, V domains shown)
VH: QVQLQQPGAELVKPGASVKMSCKASGYTFTSYNMHWVKQTPGRGLEWIGAIYPGNGDTSYNQKFKGKATLTADKSSSTAYMQLSSLTSEDSAVYYCARSTYYGGDWYFNVWGAGTTVTVS
VL: QIVLSQSPAILSASPGEKVTMTCRASSSVSYIHWFQQKPGSSPKPWIYATSNLASGVPVRFSGSGSGTSYSLTISRVEAEDAATYYCQQWTSNPPTFGGGTKLEIKR
notes: also called Rituxumab; Rituxan
In the case of B1, the results for the binding result (in experiment [1]; in experiment [2]; in the experiment with CD20-P172W) were “binds”, “binds” and “no binding”, respectively.
